B1: PCT Nb3 (VHH)
VHH: QVQLQESGGGSVQVGGSLRLSCAASGYTYSSACMGWFRQAPGKEREWVGSIVSDSDDRTNYADAVKGRFTITQDNAKNTVYLQMNSLKPEDTAMYYCAARPGNCFIATKTRRYDYWGQGTQVTVSS
notes: VHH from a naïve bactrian camel phage display library; Expressed from phagemid pMECS; source: E. coli WK6, periplasmic extract by osmotic shock, purified (Ni-NTA, 500 mM imidazole); not shown: HA, C-terminal, kept
B2: PCT Nb1 (VHH)
VHH: QVQLQESGGGSVQAGGSLRLSCLASGYTYSSYCMGWFRQAPGKEREGVAAIGSDGSTSYADSVKGRFTISQDNAKNTLYLQMNSLKPEDTAMYYCAASKSEYDCYSGSGGLFGYWGQGTQVTVSS
notes: as for B1
B3: PCT Nb2 (VHH)
VHH: QVQLQESGGGSVQAGGSLRLSCAASTSSNVNVCMGWFRQAPGKEREGVAVIARDSETNYAASVKGRFTISQDNAKNTLYLQLNSLKPEDTAMYYCAAGPCANIRGSWSNSRLLRYNFWGQGTQVTVSS
notes: as for B1

target: T1, human procalcitonin (Homo sapiens, UniProt P01258); test: SPR; SPRi on PlexArray HT; Nbs spotted and immobilised on NanoCapture 3D-chip; PCT injected at 9.7, 29.2, 87.6 and 263 nM in PBST, 2 uL/s; 1:1 Langmuir fit; conditions: both partners purified
T1 construct: human procalcitonin (PCT), the product of preprocalcitonin after removal of the signal peptide; Bought protein; also called PCT; source: bought: Huibiao Biological Technology Co., Ltd

Binder	Kd [nM]	koff [s⁻¹]	kon [M⁻¹ s⁻¹]
B1	8.89	0.000383	43100
B2	12.3	0.00051	41600
B3	1.34	0.000197	147000

Source: publication PMC4475299, “Characterization and applications of Nanobodies against human procalcitonin selected from a novel naïve Nanobody phage display library” (Journal of Nanobiotechnology, 2015)
